This note sets out measurements from the supplement of paper PMC9233669.

For one data set, the system named is biotinyl-Phe-oxazolone. Put plainly: self-aminoacylation, catalytic enhancement (BFO) (fold over background); higher = more active; k-Seq, kA / k0A0; sequences stand for … in GGGAAUGGAUCCACAUCUACGAAUUC…UUCACUGCAGACUUGACGAAGCUG
The gist of the method: (§1)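 Each biotinyl-aminoacyl-oxazolone, at 2–1250 μM, was incubated with mutagenized RNA pools (0.43 μM) carrying a 21-nt variable region. The 50 μL reactions contained HEPES/NaCl/KCl/MgCl2/CaCl2 buffer with 5% acetonitrile at pH 6.9–7.0 and ran for 90 minutes at room temperature. After streptavidin capture, RNA was measured by qPCR in triplicate and by Illumina sequencing, and catalytic enhancement was calculated as median kA over the uncatalyzed rate from a pseudo-first-order fit of per-sequence fraction reacted.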

The next data set relates to biotinyl-Val-oxazolone. Put plainly: self-aminoacylation, catalytic enhancement (BVO) (fold over background); higher = more active; k-Seq, kA / k0A0; sequences stand for … in GGGAAUGGAUCCACAUCUACGAAUUC…UUCACUGCAGACUUGACGAAGCUG
The gist of the method:
as §1

Another data set has as its system biotinyl-Trp-oxazolone. Put plainly: self-aminoacylation, catalytic enhancement (BWO) (fold over background); higher = more active; k-Seq, kA / k0A0; sequences stand for … in GGGAAUGGAUCCACAUCUACGAAUUC…UUCACUGCAGACUUGACGAAGCUG
The gist of the method:
as §1

In a further data set the test system is biotinyl-Met-oxazolone. Put plainly: self-aminoacylation, catalytic enhancement (BMO) (fold over background); higher = more active; k-Seq, kA / k0A0; sequences stand for … in GGGAAUGGAUCCACAUCUACGAAUUC…UUCACUGCAGACUUGACGAAGCUG
The method in brief: as §1

The subject of the next data set is biotinyl-Leu-oxazolone. Kind of data set: self-aminoacylation, catalytic enhancement (BLO) (fold over background); higher = more active; k-Seq, kA / k0A0; sequences stand for … in GGGAAUGGAUCCACAUCUACGAAUUC…UUCACUGCAGACUUGACGAAGCUG
The gist of the method:
as §1

A further data set has as its system biotinyl-Ile-oxazolone. Put plainly: self-aminoacylation, catalytic enhancement (BIO) (fold over background); higher = more active; k-Seq, kA / k0A0; sequences stand for … in GGGAAUGGAUCCACAUCUACGAAUUC…UUCACUGCAGACUUGACGAAGCUG
The gist of the method: as §1

Fewer inactive variants are shown than the library holds.

Regarding “CCACACUUGAAGCGAUCGGUC [Fam1B.1 aminoacylation ribozyme variant]”, the self-aminoacylation with biotinyl-Phe-oxazolone is 1.67; in the data set with biotinyl-Val-oxazolone, 1.39; in the data set on biotinyl-Trp-oxazolone, 0.952; with biotinyl-Met-oxazolone it was 1.36; with biotinyl-Leu-oxazolone, 0.996; with biotinyl-Ile-oxazolone, 1.41.

With “CAAUACUUCAAGCAAUCGGUC [Fam1B.1 aminoacylation ribozyme variant]”, the self-aminoacylation is 9.23 in the data set with biotinyl-Phe-oxazolone; 0.912 in the data set with biotinyl-Val-oxazolone; 5.14 in the data set on biotinyl-Trp-oxazolone; 0.799 in the data set on biotinyl-Met-oxazolone; 0.986 with biotinyl-Leu-oxazolone; 0.907 in the data set on biotinyl-Ile-oxazolone.

“AUUACCCUGGUCCUCGAGAGA [Fam2.1 aminoacylation ribozyme variant]”: the self-aminoacylation with biotinyl-Phe-oxazolone amounted to 0.376; in the data set on biotinyl-Val-oxazolone, 1.28; with biotinyl-Trp-oxazolone, 0.889; in the data set with biotinyl-Met-oxazolone it was 0.757; in the data set with biotinyl-Leu-oxazolone, 1.32; in the data set with biotinyl-Ile-oxazolone it was 0.884.

In the case of “AUUACACUGGUCAUUGAGUGA [Fam2.1 aminoacylation ribozyme variant]”, the self-aminoacylation in the data set on biotinyl-Phe-oxazolone came to 35; in the data set with biotinyl-Val-oxazolone it was 3.28; with biotinyl-Trp-oxazolone, 7.64; with biotinyl-Met-oxazolone it was 6.48; with biotinyl-Leu-oxazolone it was 6.76; in the data set on biotinyl-Ile-oxazolone, 3.39.

On to “AAGUUUGCUAAUCGUCGGAAG [Fam3.1 aminoacylation ribozyme variant]”, for which the self-aminoacylation with biotinyl-Phe-oxazolone is 1.64; in the data set with biotinyl-Val-oxazolone, 0.869; in the data set on biotinyl-Trp-oxazolone, 1.42; in the data set on biotinyl-Met-oxazolone, 0.704; in the data set on biotinyl-Leu-oxazolone, 0.799; with biotinyl-Ile-oxazolone it was 0.972.

For the sequence “AUUCACAAAGGUCAUCGGGUG [Fam2.2 aminoacylation ribozyme variant]”, the self-aminoacylation in the data set on biotinyl-Phe-oxazolone was 84.3; in the data set with biotinyl-Val-oxazolone, 5.83; with biotinyl-Trp-oxazolone, 8.7; in the data set on biotinyl-Met-oxazolone, 9.76; with biotinyl-Leu-oxazolone, 12.2; in the data set with biotinyl-Ile-oxazolone, 5.84.

For the sequence “AGUACCCUGGUCAUCGAGUGG [Fam2.1 aminoacylation ribozyme variant]”, the self-aminoacylation amounted to 6.94 in the data set on biotinyl-Phe-oxazolone; 2.65 in the data set on biotinyl-Val-oxazolone; 4.19 in the data set on biotinyl-Trp-oxazolone; 5.15 with biotinyl-Met-oxazolone; 4.23 in the data set with biotinyl-Leu-oxazolone; 2.26 with biotinyl-Ile-oxazolone.

With “AUUACCCUGUUGAUCGAGUGA [Fam2.1 aminoacylation ribozyme variant]”, the self-aminoacylation with biotinyl-Phe-oxazolone stood at 78.3; with biotinyl-Val-oxazolone it was 5.71; in the data set on biotinyl-Trp-oxazolone it was 16.8; in the data set on biotinyl-Met-oxazolone it was 12.5; with biotinyl-Leu-oxazolone, 13; in the data set with biotinyl-Ile-oxazolone, 5.62.

Consider “AUUCACCAAGGUCAUCGGAUG [Fam2.2 aminoacylation ribozyme variant]”, for which the self-aminoacylation is 1.12 with biotinyl-Phe-oxazolone; 1.17 in the data set on biotinyl-Val-oxazolone; 0.726 in the data set with biotinyl-Trp-oxazolone; 0.703 in the data set with biotinyl-Met-oxazolone; 0.794 in the data set on biotinyl-Leu-oxazolone; 1.09 in the data set on biotinyl-Ile-oxazolone.

As to “UUUACCCUGGGCAUCGAGUGA [Fam2.1 aminoacylation ribozyme variant]”, the self-aminoacylation was 10.4 in the data set on biotinyl-Phe-oxazolone; 2.83 in the data set on biotinyl-Val-oxazolone; 5.06 with biotinyl-Trp-oxazolone; 4.18 in the data set on biotinyl-Met-oxazolone; 4.84 in the data set on biotinyl-Leu-oxazolone; 2.3 with biotinyl-Ile-oxazolone.

On to “AUUCACCUAGGCCAUCGGGUU [Fam2.2 aminoacylation ribozyme variant]”, for which the self-aminoacylation in the data set on biotinyl-Phe-oxazolone was found to be 5.49; in the data set with biotinyl-Val-oxazolone it was 1.31; in the data set on biotinyl-Trp-oxazolone it was 0.76; in the data set with biotinyl-Met-oxazolone, 1.52; in the data set on biotinyl-Leu-oxazolone it was 1.03; with biotinyl-Ile-oxazolone, 1.34.

Take “AAGAUUGCUAAUAGUCGCAUG [Fam3.1 aminoacylation ribozyme variant]”: the self-aminoacylation was determined as 1.36 in the data set on biotinyl-Phe-oxazolone; 1.39 with biotinyl-Val-oxazolone; 1.46 with biotinyl-Trp-oxazolone; 1.45 in the data set with biotinyl-Met-oxazolone; 1.91 in the data set on biotinyl-Leu-oxazolone; 1.68 with biotinyl-Ile-oxazolone.

Take “AUUACCCUGGUCAUCGCGUGG [Fam2.1 aminoacylation ribozyme variant]”: the self-aminoacylation is 35.6 in the data set with biotinyl-Phe-oxazolone; 3.14 in the data set with biotinyl-Val-oxazolone; 5.28 with biotinyl-Trp-oxazolone; 3.88 with biotinyl-Met-oxazolone; 6.77 in the data set on biotinyl-Leu-oxazolone; 2.8 in the data set with biotinyl-Ile-oxazolone.
